These results are taken from patent US20150148405A1, “Expression Construct for a Lin28-Resistant Let-7 Precursor MicroRNA” (THE JOHNS HOPKINS UNIVERSITY, priority 2012, published 2015).

Type in all cases: cell-based, mouse
One assay relates to phospho-ERK. Briefly: Immunoblotting for phospho-ERK. As to conditions: BDNF-stimulated neurons, Actinomycin-D. On the procedure: (§1) Primary cultures of mouse hippocampal neurons (DIV 14 15) were incubated in serum-reduced medium (0.5% B27 supplement) for 2 hours, followed by […] Actinomycin-D for 10-20 min. Bath application of BDNF (100 ng/mL) was for designated periods (5 min-2 hours). The cultures were washed 3 times and harvested on ice with lysis buffer (50 mM Hepes, 150 mM NaCl, 10% Glycerol, 1 mM EDTA, 1% Triton-X-100, 0.2% SDS) plus freshly added protease inhibitor cocktail (Roche) and PMSF. Protein concentration was determined by Bradford Assay. If required, lysates were treated with Lambda Protein Phosphatase according to manufacturer's instructions (New England Biolabs […]). Equal amounts of lysate protein were resolved on SDS-PAGE gels, and electrotransferred to PVDF membrane. […]
In general terms: Immunoblotting shows a protein as a band on a membrane.

In a further assay the test system is TRBP. Briefly: Immunoblotting for TRBP. As to conditions: 5 min after BDNF; +/-0.86. On the procedure: as §1
The test system of assay [1] is hippocampal pyramidal neurons. Briefly: Live cell imaging of P-body numbers (GFP-Dcp1a). As to conditions: BDNF-stimulated vs mock, GFP-Dcp1a live imaging, in presence of Actinomycin-D. The protocol: Dissociated hippocampal cultures were prepared from postnatal day 0 (P0) mice as previously described (Meffert et al., 2003). Knockdown was by lentiviral-mediated delivery of shRNA to cultures at multiplicity of infection of 5-10, 48 hr before imaging or 4-5 days for GW182. Cultures were preincubated 10-20 min and mock- or BDNF-stimulated (100 ng/mL BDNF) in the presence of Actinomycin-D (0.5 μg/mL), unless indicated otherwise.
Confocal images of hippocampal pyramidal neurons were acquired on either a Yokogawa spinning disk (Zeiss) at 37° C. (live cells), or a LSM5 Pascal system (fixed cells). Laser power and exposure time were adjusted to minimize photobleaching and avoid saturation. […]
Dissociated hippocampal cultures were prepared from postnatal day 0 (P0) mice as previously described (Meffert et al., 2003) and were maintained in Neurobasal A medium (Gibco, 10888) with B27 Supplement (Gibco 17504-44). […] For live cell imaging, confocal images of hippocampal pyramidal neurons (excitatory, determined by morphology) in 0.24-0.3 μm Z sections were acquired using a 40×, 1.3 NA, EC Plan Neofluoar (whole cells) or a 100×, 1.4 NA Plan Apochromat oil immersion objective (dendrites) on a Yokogawa spinning disk system (Cell Observer, Carl Zeiss) at 37° C. in Tyrodes buffer (in mM: 119 NaCl, 5 KCl, 2 CaCl2, 0.2 MgCl2, Glucose, 25 Hepes, 0.01 Glycine, pH 7.4). […]

B1: BDNF: brain-derived neurotrophic factor, a neurotrophin used to stimulate hippocampal neurons (protein, UniProt P23560 19-247, looked up)
Neurotrophic factor BDNF …: APMKEANIRGQGGLAYPGVRTHGTLESVNGPKAGSRGLTSLADTFEHVIEELLDEDQKVRPNEENNKDADLYTSRVMLSSQVPLEPPLLFLLEEYKNYLDAANMSMRVRRHSDPARRGELSVCDSISEWVTAADKKTAVDMSGGTVTVLEKVPVSKGQLKQYFYETKCNPMGYTKEGCRGIDKRHWNSQCRTTQSYVRALTMDSKKRIGWRFIRIDTSCVCTLTIKRGR
For B1, the phospho-ERK induction result with phospho-ERK is given as “rapidly induced phospho-ERK”. The “total TRBP protein levels, fold increase” value in the assay on TRBP is 2.61 fold. The “number of dendritic and somatic P-bodies” value in assay [1] is “rapid and robust increase in the number of both dendritic and somatic P-bodies”.
